Data from patent US7812117B2, “Vasostatin as marrow protectant” (The United States of America as represented by the …, priority 1998, dated 2010).
Like-named read-outs stand apart in the source and are kept apart here.

Tests used:
bone marrow cells [1] = test system: bone marrow cells
Description: FIG. 2 is set of bar graphs showing of the effects of vaso on cytoxan-induced bone marrow toxicity evaluated by bone marrow cell counting. Bone marrow cells obtained from the femurs of mice treated with cytoxan alone or with vaso were counted. FIG. 2A is a bar graph of bone marrow cell counts 5 days after the injection of cytoxan (1 or 2 mg/mouse) alone or with vaso (300 μg/mouse/day). FIG. 2B is a bar graph of the bone marrow cell counts on days 3 and 5 after treatment with cytoxan (2 mg/mouse) alone or with vaso ([…]).
(§1) C57BL6J mice (7 weeks of age) were first treated for 7 days daily with either buffer (100 μl s.c.) or vaso (300 μg/mouse in 100 μl of buffer s.c.). On day 8, groups of mice (n=6) pretreated with either buffer or vaso were injected with cyclophosphamide (1.0 or 2.0 mg/mouse) and continued on daily inoculations of buffer (100 μl s.c.) or vaso (300 μg/mouse in 100 μl of buffer s.c.). Additional control mice were treated with only buffer or vaso for 5 additional days. On days 3 and 5 after cyclophosphamide injection, ½ of the mice were killed for evaluation of the bone marrow and peripheral blood.

bone marrow cells [2] = test system: bone marrow cells; remark: listed apart in the source
Description: Groups of C57BL/6 mice (8 weeks of age) were treated as described in FIG. 14. FIG. 4A is a bar graph of the bone marrow cell count from mice treated for 16 days with either buffer alone (PBS, 100 μl/mouse/day s.c), Vaso (300 μg/mouse/day s.c) alone, Cytoxan (500 μg/mouse/day i.p.) alone, or vaso (300 μg/mouse/day s.c) plus Cytoxan (500 μg/mouse/day i.p.). Bone marrow was harvested on days 9 and 17 and the number of nucleated cells were counted. FIG. 4B is a bar graph of the bone marrow cell count from mice treated with for 11 days with either buffer alone (PBS, 100 μl/mouse/day s.c), Vaso (300 μg/mouse/day s.c) alone, Cytoxan (250 μg/mouse/day i.p.)×11 days plus Cytoxan 2 mg/mouse i.p. on day 11, or Cytoxan ([…] s.c, days 1-16). Bone marrow cell counts were obtained on day 17. FIG. 4C is a bar graph of peripheral blood white cells counts (WBC) on day 17 from mice from the same treatment groups described in B. […]
In addition, rather than treating the mice with vaso prior to toxin exposure as described above, mice were simultaneously inoculated with cyclophosphamide and vaso. Thus, groups of mice (n=6) received either buffer alone (100 μl s.c) daily for 16 days, vaso (300 μg/mouse s.c) alone daily for 16 days, cyclophosphamide (500 μg/mouse i.p.) either alone or together with vaso (300 μg/mouse s.c) for 16 days. Other groups of mice (n=6) were inoculated daily for 11 days with cyclophosphamide (250 μg/mouse i.p.) either alone or together with vaso (300 μg/mouse s.c).

[3] = test system: peripheral blood white cells
Description: Groups of mice (C57BL/B6, 6 weeks old, 10 mice/group) were treated for 4 days with either buffer (PBS, 100 μl/mouse/day), native vaso (200 μg/mouse/day s.c) or denatured vaso ([…]). On day 5, some of the animals were treated with cytoxan and the original treatment with buffer, native or denatured vaso was continued. On day 9 (5 days after one half of the mice had received cytoxan), peripheral blood white cell counts were measured.
To examine whether the effects of vaso on the hematopoietic system are attributable to the native protein, the effects of native vaso were compared with the effects of vaso that had been denatured by boiling. Groups of mice (n=10) were treated for 4 days with either buffer (100 μl/mouse s.c); native vaso (200 μg/mouse/day s.c); or denatured vaso (300 μg/mouse/day s.c). On day 5, some of the mice were injected with cyclophosphamide (2 mg/mouse/i.p.) and treatment continued with either buffer, native vaso or denatured vaso. The experiment was terminated on day […], at which time peripheral blood counts were measured.

[4] = test system: peripheral blood white cells; remark: listed apart in the source
Description: Mice (C57BL/B6, females, 7.5 weeks old) were treated for 1 week with daily inoculations of vaso (300 μg/mouse) or buffer alone. On day 8, the mice received cytoxan (1 or 2 mg/mouse) and continued daily inoculation with buffer or vaso. Peripheral blood white cell counts were measured on day 5 after administration of cytoxan.
as §1

[5] = test system: athymic BALB/c nu/nu mice
Description: (§2) Groups of 6-8 athymic BALB/c nu/nu mice, 6 weeks of age, were first irradiated with 400 rad, and 24 hr later were inoculated s.c. with 8×10^6 Burkitt lymphoma cells (CA46 cell line). Beginning 24 hr after cell inoculation, one group (n=6) of mice received daily s.c. inoculations of buffer alone (100 μl); a second group (n=6) received daily s.c. inoculations of a fusion protein of maltose binding protein and vasostatin, MBP-vaso, alone (200 μg in 100 μl of buffer); a third group (n=8) received daily s.c. inoculations of buffer alone (100 μl) plus cyclophosphamide once on day 9 post cell inoculation (2.6 mg i.p. in 100 μl of buffer); a fourth group (n=8) received daily s.c. inoculations of vaso (200 μg in 100 μl of buffer) plus cyclophosphamide once on day 9 post cell inoculation (2.6 mg i.p. in 100 μl of buffer); a fifth group received daily s.c. inoculations of buffer alone (100 μl) plus daily i.p. inoculations of cyclophosphamide (260 μg/mouse in 100 μl of buffer); and a sixth group received daily s.c. inoculations of vaso (200 μg/mouse in 100 μl of buffer) plus daily i.p. inoculations of cyclophosphamide (260 μg/mouse in 100 μl of buffer).

[6] = test system: femoral marrow hematopoietic cells
Description: as §2

## O=P1(N(CCCl)CCCl)NCCCO1 (centres unmarked) [cyclophosphamide, reference compound]
Bone marrow cells [1]; cyclophosphamide 2 mg/mouse alone, vs control untreated mice
  bone marrow cellularity 5 days after cyclophosphamide: clear reduction in cellularity
Bone marrow cells [1]; cyclophosphamide 1.0 or 2.0 mg/mouse, alone
  marrow cell counts 5 days after cyclophosphamide: reduced significantly marrow cell counts
Bone marrow cells [2]; cyclophosphamide 250 μg/mouse daily for 11 days then single 2 mg/mouse injection on day 12, alone
  bone marrow cell counts on day 17: considerable reduction of bone marrow cell counts
Bone marrow cells [2]; cytoxan 500 μg/mouse/day i.p. alone, vs PBS controls
  bone marrow cell counts on day 9: did not reduce bone marrow cell counts on day 9
Bone marrow cells [2]; cytoxan 500 μg/mouse/day i.p. for 16 days alone, vs PBS controls
  bone marrow cell counts on day 17: reduced them on day 17
[3]; cyclophosphamide 2 mg/mouse i.p. with buffer, vs buffer-only controls
  peripheral blood white cell counts: markedly reduced
[4]; cyclophosphamide 2.0 or 1.0 mg/mouse alone, vs buffer or vaso alone controls
  peripheral blood white cell counts on day 5 after cyclophosphamide: significantly reduced
[5]; cyclophosphamide 260 μg/mouse i.p. daily for 26 days, alone
  mice alive on day 28: 8/8
[5]; cyclophosphamide 2.6 mg i.p. once on day 9 alone (daily buffer s.c.), 400 rad, CA46-inoculated, n=8
  mice alive on day 26: 0/8
[5]; cyclophosphamide 2.6 mg i.p. once on day 9 alone, n=8
  mice dead on day 13: 7 out of 8
[6]; cyclophosphamide only (260 μg/day, 26 days)
  histological appearance of femoral marrow: hypocellular and virtually depleted of hematopoietic cells

B1: vaso: N-terminal domain of calreticulin (amino acids 1-180, SEQ ID NO:3); given as fusion protein with maltose binding protein, MBP-vaso (protein)
chain: EPAVYFKEQFLDGDGWTSRWIESKHKSDFGKFVLSSGKFYGDEEKDKGLQTSQDARFYALSASFEPFSNKGQTLVVQFTVKHEQNIDCGGGYVKLFPNSLDQTDMHGDSEYNIMFGPDICGPGTKKVHVIFNYKGKNVLINKDIRCKDDEFTHLYTLIVRPDNTYEVKIDNSQVESGSLE
modifications: Vasostatin
Bone marrow cells [1]; cyclophosphamide 2 mg/mouse in conjunction with vasostatin
  bone marrow cellularity 5 days after cyclophosphamide: indistinguishable from that of control mice
Bone marrow cells [1]; cyclophosphamide 2 mg/mouse with vaso 300 μg/mouse/day
  nadir in bone marrow counts on day 3 after cyclophosphamide: reduced the severity of this nadir
Bone marrow cells [1]; cyclophosphamide 1.0 or 2.0 mg/mouse together with vaso 300 μg/mouse/day s.c.
  bone marrow cell counts 5 days after cyclophosphamide: the reduction in bone marrow cell counts was minimal
Bone marrow cells [2]; Vaso 300 μg/mouse/day s.c. for 16 days with cyclophosphamide 250 μg/mouse daily for 11 days then 2 mg/mouse on day 12
  bone marrow cell counts on day 17: prevented the occurrence of a reduction in bone marrow cell counts
Bone marrow cells [2]; cyclophosphamide 500 μg/mouse/day i.p. plus vasostatin 300 μg/mouse/day s.c.
  bone marrow cell count on days 9 and 17: higher than in the control mice and in the mice treated with cytoxan
[3]; cyclophosphamide 2 mg/mouse i.p. plus native vaso 200 μg/mouse/day s.c. or denatured vaso 300 μg/mouse/day s.c.
  peripheral blood white cell counts after cyclophosphamide (alleviation of toxicity): minimally different from those of the control mice
[4]; cyclophosphamide 2.0 or 1.0 mg/mouse with vaso 300 μg/mouse/day
  reduction in peripheral blood white cell counts caused by cyclophosphamide, day 5: alleviated
[5]; cyclophosphamide 260 μg/mouse i.p. daily in conjunction with vasostatin 200 μg/mouse s.c. daily
  mice alive on day 28: 8/8
[5]; surviving mice, high dose cyclophosphamide plus vaso, day 26
  gross and microscopic examination of liver, spleen, kidneys, heart, lung, lymph nodes and bone marrow: No abnormalities were noted
[5]; vaso 200 μg s.c. daily plus cyclophosphamide 2.6 mg i.p. once on day 9, n=8, p<0.0001 vs cyclophosphamide alone
  mice alive and well on day 26: 8/8
[5]; vasostatin alone 200 μg s.c. daily
  mice alive and well on day 28: 6/6
[6]; cyclophosphamide 260 μg/day plus vasostatin 200 μg/day, 26 days
  histological appearance of femoral marrow: indistinguishable from a normal control marrow
